According to FireProtDB (doi:10.1111/j.1432-1033.1992.tb16932.x):

B1: Ribonuclease HI, P0A7Y4 (parent)
chain: MLKQVEIFTDGSCLGNPGPGGYGAILRYRGREKTFSAGYTRTTNNRMELMAAIVALEALKEHCEVILSTDSQYVRQGITQWIHNWKKRGWKTADKKPVKNVDLWQRLDAALGQHQIKWEWVKGHAGHPENERCDELARAAAMNPTLEDTGYQVEV

Variants of: B1
Conditions: Escherichia coli (strain K12), CD, reversible: yes, structure 2RN2, whole UniProt chain shown
[1] = pH 3, 49.8 °C, Thermal, glycine-HCl 10 mM
[2] = pH 3, Thermal, glycine-HCl 10 mM
[3] = pH 5.5, 25 °C, Urea, Sodium acetate 10 mM, NaCl 0.1 M

| Variant | ddG of mutation (higher = less stable) [1] [kcal/mol] | Tm [2] [°C] | change of melting temperature, mutant - wild type (higher = more stable) [2] [°C] | unfolding enthalpy (van 't Hoff) [2] [kcal/mol] | ddG of mutation (higher = less stable) [3] [kcal/mol] | denaturant m value [3] [kcal/mol/M] | denaturant midpoint (higher = more stable) [3] [M] | unfolding free energy [3] [kcal/mol] |
| --- | --- | --- | --- | --- | --- | --- | --- | --- |
| MLKQVEIFTDGSCLGNPGPGGYGAILRYRGREKTFSAGYTRTTNNRMELMAAIVALEALKEHCEVILTTDSQYVRQGITQWIHNWKKRGWKTADKKPVKNVDLWQRLDAALGQHQIKWEWVKGHAGHPENERCDELARAAAMNPTLEDTGYQVEV [S68T] | 0.2 | 49.1 | -0.7 | 106 | -0.1 | 1.95 | 5 | 9.91 |
| MLKQVEIFTDGSCLGNPGPGGYGAILRYRGREKTFSAGYTRTTNNRMELMAAIVALEALKEHCEVILVTDSQYVRQGITQWIHNWKKRGWKTADKKPVKNVDLWQRLDAALGQHQIKWEWVKGHAGHPENERCDELARAAAMNPTLEDTGYQVEV [S68V] | -0.6 | 51.7 | 1.9 | 98.8 | -1.29 | 2.13 | 5.1 | 11.1 |
| MLKQVEIFTDGSCLGNPGPGGYGAILRYRGREKTFSAGYTRTTNNRMELMAAIVALEALKEHCEVILATDSQYVRQGITQWIHNWKKRGWKTADKKPVKNVDLWQRLDAALGQHQIKWEWVKGHAGHPENERCDELARAAAMNPTLEDTGYQVEV [S68A] | 0.5 | 48.3 | -1.5 | 89 | -0.19 | 2.06 | 4.8 | 10 |
| MLKQVEIFTDGSCLGNPGPGGYGAILRYRGREKTFSAGYTRTTNNRMELMAAIVALEALKEHCEVILGTDSQYVRQGITQWIHNWKKRGWKTADKKPVKNVDLWQRLDAALGQHQIKWEWVKGHAGHPENERCDELARAAAMNPTLEDTGYQVEV [S68G] | 2.4 | 41.8 | -8 | 84.7 | 2.2 | 2 | 4 | 7.61 |
| MLKQVEIFTDGSCLGNPGPGGYGAILRYRGREKTFSAGYTRTTNNRMELMAAIVALEALKEHCEVILLTDSQYVRQGITQWIHNWKKRGWKTADKKPVKNVDLWQRLDAALGQHQIKWEWVKGHAGHPENERCDELARAAAMNPTLEDTGYQVEV [S68L] | 0.5 | 48.2 | -1.6 | 84 | – | – | – | – |
